Measured values published in the supplement of paper PMC9732359.
± gives the uncertainty stated by the source.

Test: protein stability index of a GFP-peptide fusion (yeast GPS) (PSI 1-4); higher = more stable; sorted into four equal gates, so the index is relative within each strain
Method in brief: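 Yeast carrying a pooled library were grown to mid-log phase in leucine-free medium. Each library plasmid expresses Cherry and has a tiled 17-residue yeast protein peptide fused downstream of GFP. Cells were sorted into four equal gates by GFP/Cherry ratio, and plasmids from each gate were PCR-amplified, Illumina-sequenced and assigned to strains by barcode. Summing, across gates, the read frequency times the gate number gave each peptide's protein stability index.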

Sequence	protein stability index (doa10∆)	protein stability index (pdr5∆)	protein stability index (san1∆)	protein stability index (ubr1∆)
LVQQIQKETQKVTKIWS [PRP28]	2.39 ± 0.06	2.58 ± 0.064	2.52 ± 0.058	2.26 ± 0.047
LVREIAQDFKTDLRFQS [HHT1]	2.55 ± 0.097	3 ± 0.078	2.65 ± 0.076	2.88 ± 0.099
LVRRLSDIKQGYTQHGG [PRE9]	2.5 ± 0.14	2.06 ± 0.25	2.48 ± 0.09	
LVRYGLAEKVEKASRQQ [RPS24A]		3.33 ± 0.11	3.38 ± 0.098	3.19 ± 0.19
LVSRGGCGNTQPTIRKD [RPO21]	2.96 ± 0.07	2.74 ± 0.11	2.83 ± 0.043	2.9 ± 0.043
LVTIEGALIHKAGLMTG [SMC1]	2.99 ± 0.14	2.71 ± 0.12	2.92 ± 0.13	2.95 ± 0.12
LVTKILPLKKNEIIGDR [YCG1]	2.88 ± 0.22	2.9 ± 0.18	2.6 ± 0.24	2.83 ± 0.27
LVYNMTSFEQGEITFDG [RPT4]	2.65 ± 0.095	2.33 ± 0.079	2.97 ± 0.085	2.94 ± 0.17
LVYQYKGAGLSMGTMIC [PRE2]	2.06 ± 0.083	2.3 ± 0.097	2.18 ± 0.16	2.24 ± 0.11
LWKLLSTVKVSDLNLTD [YLR018C/POM34]	2.35 ± 0.065	2.26 ± 0.044	2.3 ± 0.06	2.52 ± 0.039
LWLKKVMEEEEQDCKCI [POP8]	2.63 ± 0.077	2.7 ± 0.068	3.05 ± 0.078	2.99 ± 0.051
LYDSLASTPSIRPDGRL [RRP42]	2.64 ± 0.14	2.81 ± 0.096	2.4 ± 0.18	2.99 ± 0.088
LYENIASSPIILEEGSS [RPN10]	2.2 ± 0.04	2.37 ± 0.047	2.35 ± 0.06	2.35 ± 0.036
LYGPPGTGKTMLVKAVA [RPT3]		1.17 ± 0.11	1.15 ± 0.21	1.37 ± 0.14
LYNVMGINKKKLLAISK [RPC31]	2.83 ± 0.26	2.3 ± 0.16	3.67 ± 0.095	3.5 ± 0.26
LYQLVDIRDSSCQGNVI [YMR129W/POM152]	3.02 ± 0.1	3.12 ± 0.089	2.86 ± 0.058	2.96 ± 0.048
LYVVGLFDTYHASKAIG [RRP6]	1.91 ± 0.045	2.38 ± 0.043	1.88 ± 0.069	2.49 ± 0.035
LYYDEDINVESLTQSVC [PUP2]	2.36 ± 0.061	2.25 ± 0.052	2.46 ± 0.064	2.21 ± 0.031
MAESLVDLEEVMDTIQE [SSN8]		3.02 ± 0.16	3.2 ± 0.19	3.2 ± 0.093
MAHRVKVIPYSTFRLNL [RPO21]	1.87 ± 0.07	1.82 ± 0.071	1.2 ± 0.12	2.29 ± 0.095
MAILLLYNDADVLTLEN [CDC53]	1.58 ± 0.09	1.93 ± 0.063	2.5 ± 0.084	2.75 ± 0.06
MAKDNLTNLLSQLNIQL [SRP72]	2.99 ± 0.077	3.13 ± 0.084	3.15 ± 0.074	2.96 ± 0.061
MAKKEGTPKTDSFIFDG [MED4]	3.43 ± 0.13	3.22 ± 0.15	2.94 ± 0.17	3.28 ± 0.092
MAKSKNHTAHNQTRKAH [RPL29]	1.7 ± 0.058	2.41 ± 0.08	1.96 ± 0.095	2.32 ± 0.067
MALKFVSIKFTNAAFPF [ECM29]	2.09 ± 0.058	1.98 ± 0.058	1.76 ± 0.078	1.82 ± 0.071

Sequence	protein stability index (doa10∆)	protein stability index (pdr5∆)	protein stability index (san1∆)	protein stability index (ubr1∆)
MAPNTSRKQKVIKTLTV [RPL22B]	2.1 ± 0.18	2 ± 0.088	2.6 ± 0.13	1.97 ± 0.093
MDNPRKLSKILRTEYGW [SNU114]	3.11 ± 0.068	2.99 ± 0.081	2.91 ± 0.059	2.94 ± 0.066
MDRTSLRKQYSAIDEEI [SMC3]	2.28 ± 0.21			2.63 ± 0.25
MDTSDDAFVATAFATEF [DLS1]	2.82 ± 0.07	3.08 ± 0.09	2.75 ± 0.081	2.8 ± 0.044
MDYHFIFSYLQFTSSLF [RGR1]	2.08 ± 0.046	1.39 ± 0.043	1.25 ± 0.076	1.21 ± 0.047
MEDEILSLGMDFIKFDQ [BRN1]	3.23 ± 0.061	3.35 ± 0.052	3.27 ± 0.041	3.15 ± 0.043
MEDVKIQKEEEPENNTV [SWI3]	3.31 ± 0.11	3.35 ± 0.073	3.41 ± 0.058	3.41 ± 0.057
MEKESVYNLALKCAERQ [NUT1]		2.1 ± 0.26	2.91 ± 0.21	
MEKKKSSSLSLESFMKS [SNM1]	1.84 ± 0.04	1.91 ± 0.045	2.62 ± 0.06	2.04 ± 0.04
MEMIENRTMDGKPVSLP [FAS1]	3.38 ± 0.15	3.24 ± 0.22	2.75 ± 0.16	3.39 ± 0.096
MENDKGQLVELYVPRKC [RPS21A]	3.17 ± 0.14		3.23 ± 0.12	3.25 ± 0.091
MEVLGIEAGRAALYKEV [RPO21]	2.55 ± 0.14	2.9 ± 0.2	2.4 ± 0.16	2.76 ± 0.12
MEYHISNTDETKGENYQ [FAS2]	3.03 ± 0.12	3.22 ± 0.14	2.75 ± 0.2	
MFLEFQSTQTDLEKTER [SMC2]	3.31 ± 0.1	2.8 ± 0.14	2.86 ± 0.25	2.64 ± 0.15
MFNNHEIDTILSTLRME [RPN9]		3.51 ± 0.2	2.84 ± 0.13	3.03 ± 0.071
MFRYKTNLYKLKEERAI [PUP3]	2.87 ± 0.22	2.67 ± 0.17	1.78 ± 0.17	2.1 ± 0.093
MGENEKPDVTYADVGGL [RPT3]	3.07 ± 0.18	3.41 ± 0.074	3.28 ± 0.1	3.31 ± 0.079
MGKGTPSFGKRHNKSHT [RPL37A]	3.24 ± 0.089	3.4 ± 0.067	3.1 ± 0.077	3.02 ± 0.069
MGQIATFIYFAYFLIIV [COB]	1.63 ± 0.053	1.29 ± 0.046	1.16 ± 0.098	1.11 ± 0.026
MGVIKKKRSHHGKASRQ [SNF6]	3.15 ± 0.14	3.15 ± 0.12		
MGVRTFSQKEMAFNLLG [FAS2]	2.1 ± 0.078	1.9 ± 0.057	2.15 ± 0.083	2.21 ± 0.046
MHSYFIFKDLVTVFLFM [COB]	1.47 ± 0.04	1.32 ± 0.037	1.36 ± 0.056	1.34 ± 0.025
MINDENYIINDIKKNNK [SRB8]	3.15 ± 0.078	2.97 ± 0.095	3.42 ± 0.12	3.21 ± 0.13
MINGRKLIKFETRNEDD [FAS1]	2.9 ± 0.071	2.81 ± 0.068	3.07 ± 0.047	2.81 ± 0.044
MINRLLLCALDRKDQDD [RPB2]	1.86 ± 0.16	3.11 ± 0.1	2.11 ± 0.17	2.97 ± 0.067
